Reference: publication PMC9424733, “Lysine acetylation of Escherichia coli lactate dehydrogenase regulates enzyme activity and lactate synthesis” (Frontiers in Bioengineering and Biotechnology, 2022)

B1: Escherichia coli lactate dehydrogenase (LdhA), wild type (enzyme, UniProt P52643 1-329, looked up)
chain: MKLAVYSTKQYDKKYLQQVNESFGFELEFFDFLLTEKTAKTANGCEAVCIFVNDDGSRPVLEELKKHGVKYIALRCAGFNNVDLDAAKELGLKVVRVPAYDPEAVAEHAIGMMMTLNRRIHRAYQRTRDANFSLEGLTGFTMYGKTAGVIGTGKIGVAMLRILKGFGMRLLAFDPYPSAAALELGVEYVDLPTLFSESDVISLHCPLTPENYHLLNEAAFEQMKNGVMIVNTSRGALIDSQAAIEALKNQKIGSLGMDVYENERDLFFEDKSNDVIQDDVFRRLSACHNVLFTGHQAFLTAEALTSISQTTLQNLSNLEKGETCPNELV
notes: D-lactate dehydrogenase LdhA of Escherichia coli; Partly acetylated on K9, K70, K154 and K248 when grown with 2% glucose (mass spectrometry); also called EcLdhA; NAD-dependent lactate dehydrogenase
B2: Escherichia coli LdhA (D279N) (enzyme, UniProt P52643 1-329, looked up)
chain: MKLAVYSTKQYDKKYLQQVNESFGFELEFFDFLLTEKTAKTANGCEAVCIFVNDDGSRPVLEELKKHGVKYIALRCAGFNNVDLDAAKELGLKVVRVPAYDPEAVAEHAIGMMMTLNRRIHRAYQRTRDANFSLEGLTGFTMYGKTAGVIGTGKIGVAMLRILKGFGMRLLAFDPYPSAAALELGVEYVDLPTLFSESDVISLHCPLTPENYHLLNEAAFEQMKNGVMIVNTSRGALIDSQAAIEALKNQKIGSLGMDVYENERDLFFEDKSNDVIQDNVFRRLSACHNVLFTGHQAFLTAEALTSISQTTLQNLSNLEKGETCPNELV
notes: D-lactate dehydrogenase LdhA of Escherichia coli with D279N; Same construct as m1 with the point mutation; also called LdhA D279N mutant
B3: Escherichia coli LdhA (K248Q) (enzyme, UniProt P52643 1-329, looked up)
chain: MKLAVYSTKQYDKKYLQQVNESFGFELEFFDFLLTEKTAKTANGCEAVCIFVNDDGSRPVLEELKKHGVKYIALRCAGFNNVDLDAAKELGLKVVRVPAYDPEAVAEHAIGMMMTLNRRIHRAYQRTRDANFSLEGLTGFTMYGKTAGVIGTGKIGVAMLRILKGFGMRLLAFDPYPSAAALELGVEYVDLPTLFSESDVISLHCPLTPENYHLLNEAAFEQMKNGVMIVNTSRGALIDSQAAIEALQNQKIGSLGMDVYENERDLFFEDKSNDVIQDDVFRRLSACHNVLFTGHQAFLTAEALTSISQTTLQNLSNLEKGETCPNELV
notes: D-lactate dehydrogenase LdhA of Escherichia coli with K248Q (mimics acetyl-lysine); Same construct as m1 with the point mutation; also called LdhA K248Q mutant
B4: Escherichia coli LdhA (K248R) (enzyme, UniProt P52643 1-329, looked up)
chain: MKLAVYSTKQYDKKYLQQVNESFGFELEFFDFLLTEKTAKTANGCEAVCIFVNDDGSRPVLEELKKHGVKYIALRCAGFNNVDLDAAKELGLKVVRVPAYDPEAVAEHAIGMMMTLNRRIHRAYQRTRDANFSLEGLTGFTMYGKTAGVIGTGKIGVAMLRILKGFGMRLLAFDPYPSAAALELGVEYVDLPTLFSESDVISLHCPLTPENYHLLNEAAFEQMKNGVMIVNTSRGALIDSQAAIEALRNQKIGSLGMDVYENERDLFFEDKSNDVIQDDVFRRLSACHNVLFTGHQAFLTAEALTSISQTTLQNLSNLEKGETCPNELV
notes: D-lactate dehydrogenase LdhA of Escherichia coli with K248R; Same construct as m1 with the point mutation; also called LdhA K248R mutant

Target: the molecule itself
Experiment: SEC; gel filtration analysis of purified LdhA and mutants; retention volumes of the highest peaks compared; column and buffer not told

Stoichiometry N, 4:
B1
B2
B3
B4
